Laboratory results published in publication PMC5870375, “Amyloid-beta modulates microglial responses by binding to the triggering receptor expressed on myeloid cells 2 (TREM2)” (Molecular Neurodegeneration, 2018).

Target: T1, oligomeric amyloid-β 1–42 (UniProt P05067 672-713)
T1 construct: amyloid-beta 1-42, cut product of the amyloid precursor protein (APP); numbers count on: the Aβ peptide; Heterogeneous mixture of low-n and high-n oligomers, prepared without separation of monomeric Aβ; also called oAβ_(1–42); oAβ; source: synthetic peptide, bought: AnaSpec (AS-20276); oligomers made by incubation at 22 °C for 16 h, then 4 °C for 24 h, supernatant after 16,000×g
Test: ELISA; solid phase binding assay: 96-well plate coated with 100 nM oAβ1-42 in PBS overnight at 4 °C, blocked with 4% BSA; purified Fc or sTREM2-Fc proteins in PBST with 0.5% BSA, 30 min at 37 °C; detected with biotinylated anti-Fc antibody, avidin-HRP, TMB, read at 620 nm
Conditions: both partners purified

B1: sTREM2-Fc fragment carrying residues 1–51 (Fc fusion, human, UniProt Q9NZC2 19-51, looked up)
chain: HNTTVFQGVAGQSLQVSCPYDSMKHWGRRKAWC
notes: signal peptide in the construct; human TREM2, C-terminally truncated extracellular domain, residues 1-51
- binding result: binds

B2: sTREM2-Fc fragment carrying residues 1–71 (Fc fusion, human, UniProt Q9NZC2 19-71, looked up)
chain: HNTTVFQGVAGQSLQVSCPYDSMKHWGRRKAWCRQLGEKGPCQRVVSTHNLWL
notes: signal peptide in the construct; human TREM2, C-terminally truncated extracellular domain, residues 1-71
- binding result: binds

B3: sTREM2-Fc fragment carrying residues 1–111 (Fc fusion, human, UniProt Q9NZC2 19-111, looked up)
chain: HNTTVFQGVAGQSLQVSCPYDSMKHWGRRKAWCRQLGEKGPCQRVVSTHNLWLLSFLRRWNGSTAITDDTLGGTLTITLRNLQPHDAGLYQCQ
notes: signal peptide in the construct
- binding result: binds

B4: sTREM2-Fc fragment carrying residues 1–91 (Fc fusion, human, UniProt Q9NZC2 19-91, looked up)
chain: HNTTVFQGVAGQSLQVSCPYDSMKHWGRRKAWCRQLGEKGPCQRVVSTHNLWLLSFLRRWNGSTAITDDTLGG
notes: signal peptide in the construct; human TREM2, C-terminally truncated extracellular domain, residues 1-91
- binding result: binds

B5: sTREM2-Fc fragment carrying residues 1–131 (Fc fusion, human, UniProt Q9NZC2 19-131, looked up)
chain: HNTTVFQGVAGQSLQVSCPYDSMKHWGRRKAWCRQLGEKGPCQRVVSTHNLWLLSFLRRWNGSTAITDDTLGGTLTITLRNLQPHDAGLYQCQSLHGSEADTLRKVLVEVLAD
notes: as for B3
- binding result: binds

B6: sTREM2-Fc fragment carrying residues 1–151 (Fc fusion, human, UniProt Q9NZC2 19-151, looked up)
chain: HNTTVFQGVAGQSLQVSCPYDSMKHWGRRKAWCRQLGEKGPCQRVVSTHNLWLLSFLRRWNGSTAITDDTLGGTLTITLRNLQPHDAGLYQCQSLHGSEADTLRKVLVEVLADPLDHRDAGDLWFPGESESFE
notes: signal peptide in the construct; human TREM2, C-terminally truncated extracellular domain, residues 1-151
- binding result: binds
